Like-named read-outs stand apart in the source and are kept apart here.
Legend:
[1] = target: human brain-derived neurotrophic factor (BDNF) (human) (UniProt P23560); experiment: cell-based or functional assay
[2] = target: human brain-derived neurotrophic factor (BDNF) (human) (UniProt P23560); experiment: cell-based or functional assay; remark: listed apart in the source

Chain of human brain-derived neurotrophic factor (BDNF) (human) (P23560 129-247 limits assumed): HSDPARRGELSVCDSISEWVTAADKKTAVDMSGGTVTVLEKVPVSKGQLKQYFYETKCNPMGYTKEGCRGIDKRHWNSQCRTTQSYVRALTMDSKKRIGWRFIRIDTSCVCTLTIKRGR

“TrkB-Fc (Sigma T8694) (from UniProt P15209 32-429) (Fc fusion)” gave a PathHunter pTrkB assay in U2OS TrkB/p75NTR cells, 300 pM BDNF [1] of 24 nM, a pERK assay in U2OS TrkB/p75NTR cells, 150 pM BDNF [1] of 7.6 nM and a PathHunter pTrkB assay in U2OS TrkB/p75NTR cells, 300 pM BDNF [2] of 4.4 nM.
